Data from patent US10925969B2, “Anti-BCMA polypeptides and proteins” (priority 2015, dated 2021).

What was measured:
[1] = tested on: H929 cells; test: In vitro sensitivity to abraxane and bortezumib; type: cell-based; conditions: Homo sapiens, NCI-H929
Description: The sensitivity of H929 and U266B cells to abraxane and bortezumib (BTZ) was measured in vitro.

[2] = tested on: H929; test: WST assay of immunotoxin activity; type: cell-based
Description: (§1) The activity of the anti-BCMA immunotoxins against BCMA-expressing cell lines and cells from four multiple myeloma patients was tested by WST assay.

[3] = tested on: HUT-102; test: WST assay of immunotoxin activity; type: cell-based
Description: as §1

[4] = tested on: JJN-3; test: WST assay of immunotoxin activity; type: cell-based
Description: as §1

[5] = tested on: Jeko-1; test: WST assay of immunotoxin activity; type: cell-based
Description: as §1

[6] = tested on: KMS-18; test: WST assay of immunotoxin activity; type: cell-based
Description: as §1

[7] = tested on: LP-1; test: WST assay of immunotoxin activity; type: cell-based
Description: as §1

[8] = tested on: RPMI-8226; test: WST assay of immunotoxin activity; type: cell-based
Description: as §1

[9] = tested on: U266B; test: WST assay of immunotoxin activity; type: cell-based
Description: as §1

[10] = tested on: MM-1 cells from patient; test: WST assay, cells from multiple myeloma patient; type: cell-based, human; conditions: cells from patient MM-1
Description: as §1

[11] = tested on: MM-2 cells from patient; test: WST assay, cells from multiple myeloma patient; type: cell-based, human; conditions: cells from patient MM-2
Description: as §1

[12] = tested on: MM-3 cells from patient; test: WST assay, cells from multiple myeloma patient; type: cell-based, human; conditions: cells from patient MM-3
Description: as §1

[13] = tested on: MM-4 cells from patient; test: WST assay, cells from multiple myeloma patient; type: cell-based, human; conditions: cells from patient MM-4
Description: as §1

[14] = tested on: BCMA-positive H929 cells; test: Cell killing at fixed dose, trypan blue staining after timed exposure; type: cell-based; conditions: H929, 100 ng/ml
Description: Cell killing activity was measured by trypan blue staining of cells taken at various time points (days) after exposure to the immunotoxin.

[15] = tested on: H929 xenograft tumors; test: Antitumor activity in mice with H929 xenograft tumors; type: in vivo; conditions: 1.5 mg/kg QODX5, SCID mice
Description: To test the in vivo efficacy of LMB38 and LMB70, tumors were grown in SCID mice using the most sensitive cell line H929. Based on the previous toxicity data, 1.5 mg/kg QODX5 doses were used on 5 mice in each group. […] However, the tumors grew back once the treatment was finished.

[16] = tested on: H929 cells; test: WST-8 assay of AF647-labeled and unlabeled LMB70; type: cell-based; conditions: in ng/mL
Description: (§2) LMB70 was labeled with AF647 for measurement of uptake in vivo. LMB70 was labeled twice with AF647 using an AF647 labeling kit (Life Technologies). Labeling efficacy and activity were measured by WST-8 assay and affinity measurement.

[17] = molecular target: T1, BCMA (Homo sapiens, UniProt Q02223); test: Affinity measurement of AF647-labeled and unlabeled LMB70; type: binding; conditions: after the first labeling
T1 sequence (Q02223 1-184): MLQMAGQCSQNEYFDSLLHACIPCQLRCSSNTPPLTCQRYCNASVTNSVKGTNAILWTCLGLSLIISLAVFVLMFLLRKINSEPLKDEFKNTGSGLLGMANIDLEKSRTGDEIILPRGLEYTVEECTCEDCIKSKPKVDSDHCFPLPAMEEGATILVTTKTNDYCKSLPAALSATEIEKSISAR
Description: as §2

[18] = tested on: H929 cells; test: Cell viability by flow cytometry (Annexin V/7AAD staining) after various exposure durations; type: cell-based; conditions: viability after 3 days
Description: H929 cells were exposed to LMB70 for various durations. Cell viability was analyzed after 3 days by flow cytometry (Annexin V/7AAD staining).
H929 cells were exposed to 2 ng/ml LMB70 for various lengths of time from 10 minutes up to 72 hours. Cell viability was analyzed after 3 days by flow cytometry (Annexin V/7AAD staining).

[19] = tested on: H929 cells; test: Cell viability by trypan blue staining after 20 minute exposure; type: cell-based; conditions: 100 ng/ml for 20 minutes
Description: H929 cells were exposed to 100 ng/ml LMB70 for 20 minutes. Cell viability was analyzed with trypan blue staining.

[20] = tested on: H929 cells; test: Cell viability and cell density at varying LMB70 concentrations; type: cell-based; conditions: 2 hours or 6 hours exposure
Description: H929 cells were exposed to 2, 10, and 100 ng/ml LMB70 for 2 hours or 6 hours. Cell viability and cell density were analyzed.

CC(C)C[C@H](NC(=O)[C@H](Cc1ccccc1)NC(=O)c1cnccn1)B(O)O [BTZ, bortezomib]
IC50 [1]: 4 nM

B1: LMB70: anti-BCMA immunotoxin BM306-Fab-LR-GGS (conjugate)
VH: EVQLQQSGPELVKPGASVKISCKTSGYTFTEYTINWVKQSHGKSLEWIGDIYPDNYNIRYNQKFKGKATLTVDKSSSTAYMELRSLSSEDSAIYYCANHDFFVFWGQGTLVTVSA
VL: DIQMTQATSSLSASLGDRVTINCRTSQDISNHLNWYQQKPDGTVKLLIYYTSRLQSGVPSRFSGSGSGTDYSLTISNLEQEDIGTYFCHQGNTLPPTFGGGTKLEIK
modifications: left off: another chain or arm of the molecule; a dimerising Fc or GST; small tags and cut ends
notes: anti-BCMA immunotoxin BM306-Fab-LR-GGS
IC50 [2]: 0.0011 µg/mL
IC50 [3]: >0.1 µg/mL
IC50 [4]: 0.004 µg/mL
IC50 [5]: >0.1 µg/mL
IC50 [6]: 0.065 µg/mL
IC50 [7]: 0.02 µg/mL
IC50 [8]: 0.0051 µg/mL
IC50 [9]: 0.005 µg/mL
IC50 [10]: 0.0004 µg/mL
IC50 [11]: 0.017 µg/mL
IC50 [12]: 0.0023 µg/mL
IC50 [13]: 0.0179 µg/mL
Percent dead ([14]; 2 hr exposure, D-1): 43%
Percent dead ([14]; 2 hr exposure, D-2): 88%
Percent dead ([14]; 2 hr exposure, D-5): 100%
Percent dead ([14]; 2 hr exposure, D-7): 100%
Percent dead ([14]; 4 hr exposure, D-1): 44%
Percent dead ([14]; 4 hr exposure, D-2): 89%
Percent dead ([14]; 4 hr exposure, D-5): 100%
Percent dead ([14]; 4 hr exposure, D-7): 100%
Percent dead ([14]; 6 hr exposure, D-1): 42%
Percent dead ([14]; 6 hr exposure, D-2): 88%
Percent dead ([14]; 6 hr exposure, D-5): 100%
Percent dead ([14]; 6 hr exposure, D-7): 100%
Percent dead ([14]; 24 hr exposure, D-1): 51%
Percent dead ([14]; 24 hr exposure, D-2): 95%
Percent dead ([14]; 24 hr exposure, D-5): 100%
Percent dead ([14]; 24 hr exposure, D-7): 100%
tumor growth compared to PBS-treated mice [15]: delayed
tumors once the treatment was finished [15]: grew back
IC50 (WST-8) ([16]; after the first labeling): 1.532
IC50 (WST-8) ([16]; after the second labeling): 2.758
Bmax (affinity measurement) [17]: 2220
cell death ([18]; 2 ng/ml, even after 24 hours of exposure): did not die
exposure time sufficient to kill cells ([18]; 100 ng/ml): ≤ 10 min
time after exposure at which cells started to die [19]: 24 h
time after which all cells were dead [19]: 3 days
effect on cell viability and growth ([20]; 2 ng/ml): slight growth inhibition, but no cell killing
effect on cell viability and growth ([20]; 10 ng/ml): not enough to kill all cells
